± gives the uncertainty stated by the source.

This series is described as follows: protein stability index of a GFP-peptide fusion (yeast GPS) (PSI 1-4); higher = more stable; sorted into four equal gates, so the index is relative within each strain. The essentials:
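The protein stability index combines read frequencies across sorting gates, each weighted by its gate number and then summed. To obtain those frequencies, a pooled yeast library of GFP fusions to tiled 17-residue yeast protein peptides, on a plasmid also expressing Cherry, was grown to mid-log phase in leucine-free medium. The cells were sorted into four equal gates by GFP/Cherry ratio before plasmid amplification by PCR and Illumina sequencing.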

With ALQKGLKDLMDLCDVVE [RPC19], the protein stability index is, setting by setting: (doa10∆) 3.44 ± 0.24; (pdr5∆) 2.84 ± 0.28; (san1∆) 2.92 ± 0.13; (ubr1∆) 3.02 ± 0.14.

Take ADEDDEDAKYVINLKQI [RPT1]: the protein stability index reads like this: (doa10∆) 1.99 ± 0.13; (pdr5∆) 2.66 ± 0.16; (san1∆) 1.8 ± 0.2; (ubr1∆) 2.61 ± 0.085.

In the case of FTCSCNSLTVDGNNANY [RPN14], the protein stability index reads like this: (doa10∆) 2.8 ± 0.074; (pdr5∆) 2.81 ± 0.076; (san1∆) 2.69 ± 0.058; (ubr1∆) 2.75 ± 0.044.

As for KISLRDICLKLNLDSEQ [RPN3], the protein stability index (doa10∆) is 3.46 ± 0.12, the protein stability index (pdr5∆) came out at 3.34 ± 0.093 and the protein stability index (ubr1∆) was 3.32 ± 0.11.

The sequence INDPTNKEYTLVHGIFG [SIN4] had a protein stability index (doa10∆) of 2.1 ± 0.09, a protein stability index (pdr5∆) of 2.21 ± 0.091, a protein stability index (san1∆) of 2.25 ± 0.13 and a protein stability index (ubr1∆) of 1.94 ± 0.19.

For MKPSEILSLIEEAAGTK [SMC2], the protein stability index reads like this: (doa10∆) 3.24 ± 0.1; (pdr5∆) 3.23 ± 0.084; (san1∆) 3.22 ± 0.083; (ubr1∆) 3.22 ± 0.064.

VLSDDAKKLSSFDFGNE [ARP9]: the protein stability index stood at 2.93 ± 0.055 (doa10∆), 3.06 ± 0.09 (pdr5∆), 2.86 ± 0.062 (san1∆) and 3.06 ± 0.056 (ubr1∆).

As for AHAQHQPSQQPQQAQQQ [GAL11], the protein stability index is, setting by setting: (doa10∆) 2.92 ± 0.041; (pdr5∆) 3.03 ± 0.037; (san1∆) 3 ± 0.032; (ubr1∆) 2.98 ± 0.031.

Turning to PAKPALSFGTATSDNKT [YJL041W/NSP1], the protein stability index reads like this: (doa10∆) 3.05 ± 0.09; (pdr5∆) 3.12 ± 0.072; (san1∆) 2.93 ± 0.097; (ubr1∆) 3.08 ± 0.048.

Regarding QVLVTTNQDGLKFVKVR [RPB2], the protein stability index turned out to be 1.41 ± 0.075 (doa10∆), 1.78 ± 0.1 (pdr5∆), 1.69 ± 0.14 (san1∆) and 1.33 ± 0.11 (ubr1∆).

VLVASAKGLQTVVVEED [RPL31A] had a protein stability index (doa10∆) of 2.19 ± 0.1, a protein stability index (pdr5∆) of 2.49 ± 0.11, a protein stability index (san1∆) of 2.54 ± 0.087 and a protein stability index (ubr1∆) of 2.25 ± 0.094.

Consider SRYEPKVFDCGDNIVMS [PRE7], for which the protein stability index worked out at 2.49 ± 0.12 (doa10∆), 2.78 ± 0.11 (pdr5∆), 2.89 ± 0.11 (san1∆) and 2.06 ± 0.23 (ubr1∆).

ELRYQSHILNSHSLALN [DSN1]: the protein stability index came to 2.29 ± 0.066 (doa10∆), 2.66 ± 0.058 (pdr5∆), 2.63 ± 0.057 (san1∆) and 2.66 ± 0.049 (ubr1∆).

As for DLLKNAPLFKKNSSRPM [SMD3], the protein stability index runs as follows: (doa10∆) 2.27 ± 0.047; (pdr5∆) 1.76 ± 0.043; (san1∆) 1.77 ± 0.11; (ubr1∆) 1.62 ± 0.034.

In turn, KNYPEYFLKVTFLKYFG [IRR1] returned a protein stability index (doa10∆) of 1.33 ± 0.085, a protein stability index (pdr5∆) of 1.54 ± 0.052, a protein stability index (san1∆) of 1.22 ± 0.14 and a protein stability index (ubr1∆) of 1.49 ± 0.046.

Turning to DVEENRSEFIESLLNWI [YJR042W/NUP85], the protein stability index runs as follows: (doa10∆) 3.19 ± 0.12; (pdr5∆) 3.08 ± 0.085; (san1∆) 3.35 ± 0.14; (ubr1∆) 3.34 ± 0.069.

As for NKLLRRKLMEMENILQR [YIL149C/MLP2], the protein stability index is, setting by setting: (doa10∆) 3.41 ± 0.2; (san1∆) 3.33 ± 0.11.

Consider TKNGTPNPNNMKTVQSP [GAL11], for which the protein stability index (doa10∆) amounted to 2.96 ± 0.086, the protein stability index (pdr5∆) came to 2.92 ± 0.081, the protein stability index (san1∆) was found to be 2.77 ± 0.062 and the protein stability index (ubr1∆) came out at 2.91 ± 0.066.

As to AGLDEDGKGAVYSFDPV [PRE7], the protein stability index (doa10∆) was 2.58 ± 0.29, the protein stability index (pdr5∆) turned out to be 3 ± 0.2 and the protein stability index (ubr1∆) came out at 2.87 ± 0.15.

On to AEEAIVNAMRVLYYRDA [PRE4], for which the protein stability index stood at 3.33 ± 0.17 (pdr5∆) and 2.73 ± 0.2 (san1∆).

For VPRKFKHFIQGGSFGNR [RPL7A], the protein stability index (doa10∆) was found to be 3.36 ± 0.13, the protein stability index (pdr5∆) amounted to 2.85 ± 0.1, the protein stability index (san1∆) worked out at 3.13 ± 0.12 and the protein stability index (ubr1∆) stood at 2.17 ± 0.055.

Regarding DSSSVSEDSAVFKATSS [FAS1], the protein stability index stood at 3 ± 0.089 (doa10∆), 3.32 ± 0.096 (pdr5∆), 2.98 ± 0.065 (san1∆) and 3.14 ± 0.083 (ubr1∆).

Take ESLRGILHVRAQYCYKN [SRP72]: the protein stability index runs as follows: (doa10∆) 1.94 ± 0.1; (pdr5∆) 2.36 ± 0.11; (san1∆) 2.18 ± 0.22; (ubr1∆) 2.13 ± 0.062.

With SSTPKFTKKPVTPNDKI [SIR4], the protein stability index (doa10∆) was found to be 2.96 ± 0.11, the protein stability index (pdr5∆) was determined as 2.89 ± 0.07, the protein stability index (san1∆) stood at 2.96 ± 0.062 and the protein stability index (ubr1∆) is 3.08 ± 0.054.

Turning to LDPLARVSKDKKSGSLT [FAS2], the protein stability index reads like this: (doa10∆) 3.31 ± 0.1; (pdr5∆) 3.2 ± 0.096; (san1∆) 3.22 ± 0.084; (ubr1∆) 3.14 ± 0.16.

Regarding QSSLSKVDIPLEVVQYI [NUT2], the protein stability index by setting is: (doa10∆) 2.69 ± 0.081; (pdr5∆) 2.16 ± 0.086; (san1∆) 2.24 ± 0.083; (ubr1∆) 2.29 ± 0.071.

The values are drawn from the supplement of paper PMC9732359.
